# Source: patent US20140302063A1 (SECRETARY OF STATE FOR HEALTH, published 2014)
# B1: R2b-E8 (VHH)
# VHH: QVQLVESGGGLVQPGGSLRLSCAASGSFFSRYRMGWYRQAPGEQRELVAGITYDDSTNYAGSVKGRFTISRDNAKNTVHLQMNSLKPEDTAVYYCNLNPPGNLYWGQGTQVTVSS
# B2: R2b-D9 (VHH)
# VHH: QVQLVESGGGLVQPGGSLRLSCLASGSAFSLYTMGWYRQAPGNQRELVAAITSGESTNYADSVKGRFTISRDNAKNTVYLQMNSLKPEDTAVYYCNADPLSTGWGQYSYWGQGTQVTVSS
# B3: R1a-A5 (VHH)
# VHH: QVQLVESGGGLVQPGGSLRLSCSASGSAVLFSTYPMSWYRQAPGKQRELVAAVTTDGSTSYADYAKGRFTISRDNAKNTVYLQMNSLKPEDTAVYYCNARDGFFNRYDYWGQGTQVTVSS
# B4: R1a-C5 (VHH)
# VHH: QVQLVESGGGLVQPGGSLRLSCAASNDIFSFYTMGWYLQAIGKQREPVAVIGNGGNTNYAESVKGRFTISRDGAKNTAYLQMNSLKPEDTAVYYCMASGPGGLNVWGQGTQVTVSS
# B5: R1a-B6 (VHH)
# VHH: QVQLVESGGGLVQPGGSLRLSCAASGSFFSRYRMGWYRQAPGEQRELVASIAYDGSTSYADPVKGRFTISRDNANTVHLQMYSLKPDDTAVYYCNLDPPGILYWGQGTQVTVSS
# B6: R1a-H6 (VHH)
# VHH: QVQLVESGGGLVQAGDSLRLSCTASVLTFSLYRVGWFRQAPGKEREFVAAIDWGDGPTTYADSVKGRFTISRDNAERTAYLQINSLKPEDTAVYYCGAGNTGSSDRSSSYVHWGQGTQVTVSS
# B7: R2a-G8 (VHH)
# VHH: QLQLAESGGGLVQAGGSLRLSCAASGSTLNNNAIGWFRQAPGKEREGVSCMNSRDGTTNYADSVKGRFTISRDVAKNTVYLQMNSLKPEDTAVYFCAVKGFAPFLIGCPWGKAEYDYWGQGTQVTVSS
# Columns and labels:
# Experiment in all cases: ELISA, inactivated virus
# [1] = target: A/Duck/Sing-Q/97 (H5N3) inactivated viral preparation (Influenza A virus A/Duck/Sing-Q/97 (H5N3))
# [2] = target: A/TurkTurk/1/2005 (H5N1) inactivated viral preparation (Influenza A virus A/turkey/Turkey/1/2005 (H5N1))
# [3] = target: A/Indonesia/05/2005 (H5N1) inactivated viral preparation (Influenza A virus A/Indonesia/05/2005 (H5N1))
# [4] = target: A/HongKong/213/2003 (H5N1) inactivated viral preparation (Influenza A virus A/HongKong/213/2003 (H5N1))
# [5] = target: A/mallard/Eng/727/06 (H2N3) inactivated viral preparation (Influenza A virus A/mallard/Eng/727/06 (H2N3))
# [6] = target: A/Vietnam/119/2004 (H5N1) inactivated viral preparation (Influenza A virus A/Vietnam/119/2004 (H5N1))
# [7] = target: A/HongKong/1073/99 (H9N2) inactivated viral preparation (Influenza A virus A/HongKong/1073/99 (H9N2))
Binder,EC50 [1],EC50 [2],EC50 [3],EC50 [4],EC50 [5],EC50 [6],EC50 [7]
B1,4.98 µg/mL,0.89 µg/mL,0.8 µg/mL,1.2 µg/mL,0.002 µg/mL,1.83 µg/mL,5.63 µg/mL
B2,5.64 µg/mL,0.76 µg/mL,0.58 µg/mL,2.8 µg/mL,0.06 µg/mL,1.81 µg/mL,–
B3,0.27 µg/mL,0.13 µg/mL,0.15 µg/mL,0.27 µg/mL,0.006 µg/mL,0.25 µg/mL,–
B4,7.57 µg/mL,0.15 µg/mL,1.17 µg/mL,2.9 µg/mL,0.06 µg/mL,2.89 µg/mL,4.48 µg/mL
B5,1.32 µg/mL,0.44 µg/mL,0.42 µg/mL,0.37 µg/mL,0.102 µg/mL,0.82 µg/mL,2.3 µg/mL
B6,–,–,–,–,–,–,5.7 µg/mL
B7,9.67 µg/mL,1.93 µg/mL,5.7 µg/mL,6.2 µg/mL,2.5 µg/mL,3.36 µg/mL,–
